Measurements: the supplement of paper PMC9732359
± gives the uncertainty stated by the source.

Test: protein stability index of a GFP-peptide fusion (yeast GPS) (PSI 1-4); higher = more stable; sorted into four equal gates, so the index is relative within each strain
How it was run: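 The protein stability index combines read frequencies across sorting gates, each weighted by its gate number and then summed. To obtain those frequencies, a pooled yeast library of GFP fusions to tiled 17-residue yeast protein peptides, on a plasmid also expressing Cherry, was grown to mid-log phase in leucine-free medium. The cells were sorted into four equal gates by GFP/Cherry ratio before plasmid amplification by PCR and Illumina sequencing.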

Sequence | protein stability index (doa10∆) | protein stability index (pdr5∆) | protein stability index (san1∆) | protein stability index (ubr1∆)
EARINELLSSLEGKGSL [RPP2B] | 2.74 ± 0.12 | 2.79 ± 0.099 | 2.91 ± 0.047 | 3.2 ± 0.077
EARLRNLTYSSGLFVDV [RPB2] | 2.34 ± 0.057 | 2.25 ± 0.047 | 1.46 ± 0.075 | 1.79 ± 0.028
ECADLWPRVASNSGVVV [RPL23A] | 2.9 ± 0.17 | 2.63 ± 0.1 | 3.06 ± 0.11 | 3.17 ± 0.062
ECLPAEGHDWKAPTKLD [DIS3] | 3.27 ± 0.098 | 3.21 ± 0.082 | 3.35 ± 0.071 | 3.23 ± 0.079
EDAFNFWFDKLVTKILP [YCG1] | 1.94 ± 0.21 | 2.5 ± 0.14 | 2.88 ± 0.12 | 2.94 ± 0.11
EDCVEEFFHLQHYLDTA [QCR6] | 3.21 ± 0.085 | 3.4 ± 0.081 | 3.13 ± 0.063 | 3.31 ± 0.068
EDEDDDDDDDEDEEEEE [QCR6] | 3.06 ± 0.049 | 3.5 ± 0.12 | 3.4 ± 0.041 | 3.84 ± 0.17
EDEEDDNISSFHSAVEN [YCG1] | 3.12 ± 0.069 | 3.2 ± 0.095 | 3.26 ± 0.052 | 2.6 ± 0.063
EDGLLEGLDELPKIIQL [SOH1] | 3.11 ± 0.07 | 3.3 ± 0.047 | 3.12 ± 0.044 | 3.15 ± 0.051
EDGTIESYNQNDWKLET [SIN4] | 3.29 ± 0.22 | 3.02 ± 0.2 | 3.22 ± 0.12 | 2.98 ± 0.11
EDHIFFKYIYELILAGA [YDL116W/NUP84] | 1.74 ± 0.07 | 1.98 ± 0.064 | 1.69 ± 0.089 | 1.66 ± 0.061
EDSENPSDWQRNSFIRD [ITC1] | 3.1 ± 0.082 | 3.12 ± 0.069 | 3.14 ± 0.065 | 3.27 ± 0.067
EEAAEESDDDMGFGLFD [RPP1B] | 3.14 ± 0.059 | 2.87 ± 0.073 | 3.371 ± 0.029 | 3.23 ± 0.037
EEASQQQQLQQNSKEKN [MED2] | 2.85 ± 0.092 | 2.85 ± 0.086 | 2.92 ± 0.071 | 2.83 ± 0.065
EEDADQEESFSLNLGIG [SRB8] | 3.2 ± 0.14 | 3.01 ± 0.27 | 2.94 ± 0.17 | –
EEDVYLDPLARVSKDKK [FAS2] | 3.5 ± 0.11 | 3.29 ± 0.11 | 3.46 ± 0.069 | 3.47 ± 0.061
EEEKELTEEELKTRYVG [RPN11] | 3.68 ± 0.2 | 3.44 ± 0.12 | 3.4 ± 0.067 | 3.5 ± 0.14
EEGEYKNAANTEGHKGH [ISW2] | 3.31 ± 0.062 | 3.16 ± 0.069 | 3.31 ± 0.064 | 3.21 ± 0.053
EEIEPKLEKLRNEKRMF [SMC2] | 2.89 ± 0.11 | 3.21 ± 0.074 | 3.02 ± 0.1 | 3.21 ± 0.079
EEIFFKSVRILKNKAEY [RPC40] | 3.2 ± 0.074 | 3.2 ± 0.085 | 3.06 ± 0.062 | 3.16 ± 0.047
EEIKQSARNYDKFKLNE [SMC1] | 3.25 ± 0.066 | 3.24 ± 0.073 | 3.16 ± 0.076 | 3.31 ± 0.046
EEIKTVDPASAPNHSPE [RRP6] | 3.01 ± 0.096 | 2.96 ± 0.072 | 3.27 ± 0.068 | 3.19 ± 0.056
EEKEEEAAEESDDDMGF [RPP1B] | 3.19 ± 0.06 | 3.23 ± 0.065 | 3.09 ± 0.048 | 3.31 ± 0.036
EEKLKANKEKKKAEKAA [RPL24A] | 3.23 ± 0.07 | 3.33 ± 0.11 | 3.28 ± 0.043 | 3.48 ± 0.067
EEKPDVTYSDVGGCKDQ [RPT1] | 3.48 ± 0.16 | 3.65 ± 0.19 | 3.04 ± 0.23 | 3.41 ± 0.11
EELRDLYQTYHVLVGDL [FAS1] | 2.26 ± 0.071 | 2.54 ± 0.054 | 2.22 ± 0.059 | 2.38 ± 0.049
EENEDNDGNNRTNNVPM [NUT1] | 3.11 ± 0.12 | 3.39 ± 0.11 | 3.31 ± 0.16 | 3.56 ± 0.089

Sequence | protein stability index (doa10∆) | protein stability index (pdr5∆) | protein stability index (san1∆) | protein stability index (ubr1∆)
EEQDVDMTGDEEQEEEP [RPC19] | – | – | – | 2.76 ± 0.28
EERERKDQYVPEVSALD [RPS17A] | 2.91 ± 0.082 | 3.13 ± 0.057 | 3.17 ± 0.042 | 2.82 ± 0.049
EESIKIYPLIKPGSTVM [UBP6] | 2.94 ± 0.18 | 3.01 ± 0.093 | – | 2.96 ± 0.17
EEYKQLVKDRKFLREVF [RPO21] | 3.32 ± 0.078 | 3.49 ± 0.076 | 2.81 ± 0.084 | 2.98 ± 0.11
EFANFELKDICSFAVTK [YML103C/NUP188] | 2.07 ± 0.072 | 2.29 ± 0.065 | 2.22 ± 0.12 | 2.05 ± 0.043
EFDSDDDDISDDEEDEI [RPN4] | 3.47 ± 0.1 | 3.28 ± 0.09 | 3.14 ± 0.082 | 3.31 ± 0.098
EFEKKLQETLNKSTSSE [YIL149C/MLP2] | 2.95 ± 0.12 | 2.66 ± 0.11 | 3.17 ± 0.14 | 3.27 ± 0.15
EFIAHRLGLIPLQSMDI [RPB3] | 2.69 ± 0.13 | 2.04 ± 0.17 | 1.92 ± 0.23 | –
EFIQDSAARGLSLVYEI [ECM29] | – | – | – | 3.64 ± 0.12
EFLINEGTPINNVYFAA [RPN14] | 2.33 ± 0.07 | 2.17 ± 0.052 | 1.91 ± 0.087 | 1.94 ± 0.047
EFSPRLHNIWSNGLLSI [YML103C/NUP188] | 1.85 ± 0.061 | 1.91 ± 0.059 | 2.08 ± 0.11 | 1.89 ± 0.046
EFVDDYTVNVVDVFAMP [RPN11] | 3.08 ± 0.19 | 3.01 ± 0.17 | 2.91 ± 0.12 | 3.13 ± 0.13
EGAARGTSVYLVDKRID [DIS3] | 3.38 ± 0.17 | 3.33 ± 0.14 | 3.13 ± 0.086 | 3.08 ± 0.12
EGGKNQAELLQLAVKII [YJL039C/NUP192] | 2.87 ± 0.12 | 3.28 ± 0.081 | 3.3 ± 0.2 | 2.72 ± 0.11
EGIEIYDRKKLPRKEVD [RPC11] | 3.14 ± 0.14 | 2.98 ± 0.097 | 1.91 ± 0.14 | 3.3 ± 0.17
EGKSVDELITEGNEKLA [RPP2A] | – | 3.23 ± 0.16 | 3.41 ± 0.074 | 3.45 ± 0.28
EGLTYKYPARRIHTNDN [SSN3] | 2.78 ± 0.072 | 2.89 ± 0.073 | 2.86 ± 0.076 | 2.83 ± 0.055
EGNAQLVAIFGGQGNTD [FAS1] | 1.45 ± 0.067 | 1.94 ± 0.094 | 2.13 ± 0.13 | 1.05 ± 0.091
EGNQIIVFVHSRKETSR [BRR2] | 2.01 ± 0.055 | 2.28 ± 0.054 | 1.8 ± 0.072 | 2.48 ± 0.05
EGRSFTKAIEDAKKEMK [YLR335W/NUP2] | 2.87 ± 0.066 | 2.7 ± 0.062 | 2.83 ± 0.06 | 2.59 ± 0.081
EGVEYLREYLNLPEHIV [RPS10A] | 3.31 ± 0.081 | 3.32 ± 0.078 | 3.2 ± 0.072 | 3 ± 0.087
EGWPKFQDTLYKKIPLL [QCR10] | 2.8 ± 0.087 | 1.63 ± 0.079 | 1.85 ± 0.098 | 1.43 ± 0.069
EHFSDEETYEEKPQFKD [RPO26] | 3.51 ± 0.1 | 3.35 ± 0.2 | 3.25 ± 0.15 | 3.34 ± 0.1
EHKQLVAEIVQNVISLG [RPC82] | 2.2 ± 0.067 | 1.46 ± 0.13 | 2.16 ± 0.25 | 1.8 ± 0.1
EHRIRVFFDKRIGQEVD [RPS6A] | 3.25 ± 0.14 | 3.09 ± 0.14 | 2.6 ± 0.29 | 2.87 ± 0.2
EHTDVIDELIDTKLRLE [YIL149C/MLP2] | 2.87 ± 0.052 | 3 ± 0.059 | 2.77 ± 0.039 | 2.7 ± 0.034
EHWKVRNFKKANLVNKE [BRN1] | 2.06 ± 0.1 | 1.5 ± 0.051 | 1.54 ± 0.13 | 1.83 ± 0.05
